Eleven molecules from patent publication US20140051120A1 (Genentech, published 2014) can be followed below.

For test [1], the target named is T1, p2S (p2 peptide biotinylated through its free cysteine) (human, also: biotinylated (maleimide PEO2-biotin) on one of the two Cys, which one not given here).
T1 construct: The peptide has two cysteines; also called b-p2S
T1 peptide: RPRYACCPGWKRT
As to the kind of experiment: SPR (BIAcore-2000), IgG injected over immobilized p2S peptide.

Test [2] addresses EGFL7 coated on plates in the cell adhesion assay (human or mouse, not told apart at this place). As to the kind of experiment: cell-based or functional assay.
Test [3] deals with T1, p2S (p2 peptide biotinylated through …). As to the kind of experiment: SPR (BIAcore-2000), IgG injected over immobilized p2S peptide.
A further test has as its target T2, p5 peptide of EGFL7 (human).
T2 construct: also called Peptide P5
T2 peptide: RACSTYRTIYRTA
As to the kind of experiment: SPR (Biacore), IgG over immobilized P5 peptide at 37 C, n = 2.

Test [4] addresses T3, mouse EGFL7 (mEGFL7-CB-His) (mouse, UniProt Q9QXT5 22-275).
T3 sequence: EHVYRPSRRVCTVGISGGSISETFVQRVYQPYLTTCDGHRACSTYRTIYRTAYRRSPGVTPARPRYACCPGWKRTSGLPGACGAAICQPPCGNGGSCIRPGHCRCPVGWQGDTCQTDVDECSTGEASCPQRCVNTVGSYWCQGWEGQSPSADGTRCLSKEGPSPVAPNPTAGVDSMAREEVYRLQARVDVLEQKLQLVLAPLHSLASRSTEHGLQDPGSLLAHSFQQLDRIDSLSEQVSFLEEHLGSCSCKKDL
As to the kind of experiment: SPR (Biacore), IgG over immobilized mEGFL7-CB at 37 C, n = 2.

In test [5] the target is T3, mouse EGFL7 (mEGFL7-CB-His). As to the kind of experiment: SPR (Biacore), IgG over immobilized mEGFL7-CB at 37 C.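 Further: IgG injected as twofold series from 0.5 to 1000 nM, 3 min association and 3.5 min dissociation, reference flow cell subtracted, kinetics fitted to 1:1 Langmuir model.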

Where two headings read alike, the source gives them in different places. Where no end group is shown, it is not given here.

B1: 4F11.v15 IgG (antibody, name in Kabat numbering, V domains shown)
VH: EVQLVESGGGLVQPGGSLRLSCAASGHTFTTYGMSWVRQAPGKGLEWVGWINTHSGVPTYADDFKGRFTISLDNSKNTAYLQMNSLRAEDTAVYYCARLGSSAVDYWGQGTLVTVSS
VL: DIQMTQSPSSLSASVGDRVTITCKASQSVDYDGDSYMSWYQQKPGKAPKLLIYGASNLESGVPSRFSGSGSGTDFTLTISSLQPEDFATYYCQQNNEDPYTFGQGTKVEIKR
notes: IgG; Kabat numbering
In the case of B1, in test [1], the dissociation constant Kd is 30.5 nM, the koff was determined as 0.00276 s⁻¹ and the kon turned out to be 90500 M⁻¹ s⁻¹.

B2: 4F11.v6 IgG (antibody, V domains shown)
VH: EVQLVESGGGLVQPGGSLRLSCAASGHTFTTYGMSWVRQAPGKGLEWVGWINTHSGVPTYADDFKGRFTISRDNSKNTVYLQMNSLRAEDTAVYYCARLGSSAVDYWGQGTLVTVSS
VL: DIQMTQSPSSLSASVGDRVTITCKASQSVDYDGDSYMSWYQQKPGKAPKLLIYGASYLESGVPSRFSGSGSGTDFTLTISSLQPEDFATYYCQQNNEDPYTFGQGTKVEIK
notes: IgG; Kabat numbering
Turning to B2, the “Cell Adhesion Assay Variant/ch4F11 (fold)” value in test [2] amounted to 4.01 fold. Further, in test [3], the dissociation constant Kd turned out to be 19.5 nM, the off-rate (koff) is 0.0024 s⁻¹ and the kon was 123000 M⁻¹ s⁻¹.

B3: 4F11.v13 IgG (antibody, name in Kabat numbering, V domains shown)
VH: EVQLVESGGGLVQPGGSLRLSCAASGHTFTTYGMSWVRQAPGKGLEWVGWINTHSGVPTYADDFKGRFTISLDNSKNTAYLQMNSLRAEDTAVYYCARLGSSAVDYWGQGTLVTVSS
VL: DIQLTQSPSSLSASVGDRVTITCKASQSVDYDGDSYMSWYQQKPGKAPKLLIYGASNLESGVPSRFSGSGSGTDFTLTISSLQPEDFATYYCQQNNEDPYTFGQGTKVEIKR
notes: IgG; Kabat numbering
Regarding B3, in test [1], the Kd came out at 12.5 nM, the koff was 0.00186 s⁻¹ and the kon worked out at 149000 M⁻¹ s⁻¹.

B4: 4F11.v12 IgG (antibody, V domains shown)
VH: EVQLVESGGGLVQPGGSLRLSCAASGHTFTTYGMSWVRQAPGKGLEWVGWINIHSGVPTYADDFKGRFTISRDNSKNTVYLQMNSLRAEDTAVYYCARLGSSAVDYWGQGTLVTVSS
VL: DIQMTQSPSSLSASVGDRVTITCKASQSVDYDGDSYMSWYQQKPGKAPKLLIYGASNLESGVPSRFSGSGSGTDFTLTISSLQPEDFATYYCQQNNEDPYTFGQGTKVEIK
notes: IgG; Kabat numbering
Take B4: in test [3], the Kd was found to be 11.1 nM, the koff came to 0.00218 s⁻¹ and the kon came to 196000 M⁻¹ s⁻¹.

B5: 4F11.v14 IgG (antibody, name in Kabat numbering, V domains shown)
VH: EIQLVESGGGLVQPGGSLRLSCAASGHTFTTYGMSWVRQAPGKGLEWMGWINTHSGVPTYADDFKGRFTFSLDTSASTAYLQMNSLRAEDTAVYFCARLGSSAVDYWGQGTLVTVSS
VL: DIQLTQSPSSLSASVGDRVTITCKASQSVDYDGDSYMSWYQQKPGKAPKLLIYGASNLESGVPSRFSGSGSGTDFTLTISSLQPEDFATYYCQQNNEDPYTFGQGTKVEIKR
notes: IgG; Kabat numbering
Turning to B5, in test [1], the equilibrium dissociation constant (Kd) was 7 nM, the koff amounted to 0.000984 s⁻¹ and the kon was 141000 M⁻¹ s⁻¹.

B6: 4F11.v16 IgG (antibody, name in Kabat numbering, V domains shown)
VH: EIQLVESGGGLVQPGGSLRLSCAASGHTFTTYGMSWVRQAPGKGLEWMGWINTHSGVPTYADDFKGRFTFSLDTSASTAYLQMNSLRAEDTAVYFCARLGSSAVDYWGQGTLVTVSS
VL: DIQMTQSPSSLSASVGDRVTITCKASQSVDYDGDSYMSWYQQKPGKAPKLLIYGASNLESGVPSRFSGSGSGTDFTLTISSLQPEDFATYYCQQNNEDPYTFGQGTKVEIKR
notes: IgG; Kabat numbering
As for B6, in test [1], the Kd came out at 16.8 nM, the koff was 0.00165 s⁻¹ and the on-rate constant (kon) is 98100 M⁻¹ s⁻¹.

B7: 4F11.v10 IgG (antibody, V domains shown)
VH: EVQLVESGGGLVQPGGSLRLSCAASGHTFTTYGMSWVRQAPGKGLEWVGWINTHSGVPTYADDFKGRFTISRDNSKNTVYLQMNSLRAEDTAVYYCARLGSYAVDYWGQGTLVTVSS
VL: DIQMTQSPSSLSASVGDRVTITCKASQSVDYDGDSYMSWYQQKPGKAPKLLIYGASYLESGVPSRFSGSGSGTDFTLTISSLQPEDFATYYCQQNNEDPYTFGQGTKVEIK
notes: IgG; Kabat numbering
In the case of B7, the “Cell Adhesion Assay Variant/ch4F11 (fold)” value in test [2] came out at 4.38 fold. In test [3], binding was put at a Kd of 27.4 nM, the koff is 0.00197 s⁻¹ and the kon was 72000 M⁻¹ s⁻¹.

B8: 18F7.v6C IgG (antibody, V domains shown)
VH: EVQLVESGGGLVQPGGSLRLSCAASGYTFIDYYMNWVRQAPGKGLEWVGDINLDNSGTHYNQKFKGRFTISRDKSKNTAYLQMNSLRAEDTAVYYCAREGVYHDYDDYAMDYWGQGTLVTVSS
VL: DIQMTQSPSSLSASVGDRVTITCRTSQSLVHINGITYLHWYQQKPGKAPKLLIYRVSNRFSGVPSRFSGSGSGTDFTLTISSLQPEDFATYYCGQSTHVPLTFGQGTKVEIK
notes: IgG; Variant of 18F7.v6
In the test with p5 peptide of EGFL7, B8 had a dissociation constant Kd of 4.13 nM, a koff of 0.000502 s⁻¹ and an association rate constant (kon) of 124000 M⁻¹ s⁻¹. In test [4], binding was characterised by a dissociation constant (Kd) of 2.4 nM, the dissociation rate constant (koff) turned out to be 8.1e-05 s⁻¹ and the kon is 36000 M⁻¹ s⁻¹.

B9: 18F7.v6A IgG (antibody, V domains shown)
VH: EVQLVESGGGLVQPGGSLRLSCAASGYTFIDYYMNWVRQAPGKGLEWVGDINLDNGGTHYNQKFKGRFTISRDKSKNTAYLQMNSLRAEDTAVYYCAREGVYHDYDDYAMDYWGQGTLVTVSS
VL: DIQMTQSPSSLSASVGDRVTITCRTSQSLVHISGITYLHWYQQKPGKAPKLLIYRVSNRFSGVPSRFSGSGSGTDFTLTISSLQPEDFATYYCGQSTHVPLTFGQGTKVEIK
notes: IgG; Variant of 18F7.v6
Take B9: in the test with p5 peptide of EGFL7, the Kd is 3.74 nM, the koff was 0.00137 s⁻¹ and the on-rate constant (kon) turned out to be 373000 M⁻¹ s⁻¹. In test [4], this molecule returned a dissociation constant Kd of 7.29 nM, an off-rate constant (koff) of 0.000404 s⁻¹ and a kon of 55000 M⁻¹ s⁻¹.

B10: 18F7.v6D IgG (antibody, V domains shown)
VH: EVQLVESGGGLVQPGGSLRLSCAASGYTFIDYYMNWVRQAPGKGLEWVGDINLDSGGTHYNQKFKGRFTISRDKSKNTAYLQMNSLRAEDTAVYYCAREGVYHDYDDYAMDYWGQGTLVTVSS
VL: DIQMTQSPSSLSASVGDRVTITCRTSQSLVHISGITYLHWYQQKPGKAPKLLIYRVSNRFSGVPSRFSGSGSGTDFTLTISSLQPEDFATYYCGQSTHVPLTFGQGTKVEIK
notes: IgG; Variant of 18F7.v6
In the test with p5 peptide of EGFL7, B10 returned a Kd of 9.77 nM, a koff of 0.00232 s⁻¹ and an association rate constant (kon) of 313000 M⁻¹ s⁻¹. In test [5], this molecule displayed a dissociation constant Kd of 7.65 nM, a koff of 0.000791 s⁻¹ and an on-rate (kon) of 103000 M⁻¹ s⁻¹.

B11: 18F7.v6B IgG (antibody, V domains shown)
VH: EVQLVESGGGLVQPGGSLRLSCAASGYTFIDYYMNWVRQAPGKGLEWVGDINLDSGGTHYNQKFKGRFTISRDKSKNTAYLQMNSLRAEDTAVYYCAREGVYHDYDDYAMDYWGQGTLVTVSS
VL: DIQMTQSPSSLSASVGDRVTITCRTSQSLVHINGITYLHWYQQKPGKAPKLLIYRVSNRFSGVPSRFSGSGSGTDFTLTISSLQPEDFATYYCGQSTHVPLTFGQGTKVEIK
notes: IgG; Variant of 18F7.v6
On to B11, for which, in the test with p5 peptide of EGFL7, the Kd was 3.22 nM, the koff was determined as 0.000638 s⁻¹ and the on-rate (kon) amounted to 196000 M⁻¹ s⁻¹. In test [4], this molecule yielded a dissociation constant Kd of 2.68 nM, a dissociation rate constant (koff) of 0.000174 s⁻¹ and a kon of 79000 M⁻¹ s⁻¹.
